Experimental data: US20260193363A1 (US Dept. of Health and Human Services, published 2026)

Tests used:
[1] = target: EGFRvIII on DKMG-EGFRvIII cells (human glioblastoma line DKMG transduced with EGFRvIII); experiment: cell-based or functional assay
[2] = target: T1, EGFR overexpressed on cancer cell lines MDA-MB-468 and A431 (human, UniProt P00533 25-1210); experiment: flow cytometry, antibodies added at 2 µg/ml, A431 cells
T1 construct: whole, on cells; also called overexpressed EGFR; cancer-expressed EGFR

[3] = target: T1, EGFR overexpressed on cancer cell lines …; experiment: flow cytometry, antibodies added at 2 µg/ml, MDA-MB-468 cells
[4] = target: T2, EGFRvIII on F98npEGFRvIII cells (rat glioma F98 transfected with nonphosphorylated EGFRvIII); experiment: flow cytometry, antibodies added at 2 µg/ml, F98-npEGFRvIII cells
T2 construct: whole, on cells; also called F98-EGFRvIII

[5] = target: T3, EGFRvIII extracellular domain, His-tagged (human); experiment: BLI (Octet Red96), His-tagged antigen on Ni-NTA biosensors, antibody in solution, 30 C
T3 construct: extracellular domain; also called EGFRvIII-His; EGFRvIII-HIS

[6] = target: T4, wild-type EGFR extracellular domain, His-tagged (human, UniProt P00533 25-645); experiment: ELISA, hybridoma supernatant on His-tagged ECD on nickel-coated 96-well plate, OD450
T4 construct: extracellular domain; also called wtEGFR-His; EGFRwt ECD

[7] = target: T4, wild-type EGFR extracellular domain, …; experiment: ELISA, purified antibody on His-tagged ECD, OD450
[8] = target: T5, wtEGFR at physiological levels on WI-38 cells (human, UniProt P00533 25-1210); experiment: flow cytometry, antibodies added at 2 µg/ml, WI-38 cells
T5 construct: whole, on cells; also called normal cells

[9] = target: T6, wild-type EGFR on F98EGFR cells (rat glioma F98 transfected with full-length EGFR) (UniProt P00533 25-1210, limits assumed); experiment: flow cytometry, antibodies added at 2 µg/ml, F98-EGFR cells
T6 construct: whole, on cells; also called wtEGFR on transfected F98 cells

Binder | IC50 (nM), cell viability, DKMG EGFRvIII cells [1] [nM] | Median : PE-A [2] | Median : PE-A [3] | Median : PE-A [4] | Kd [5] [nM] | koff [5] [s⁻¹] | kon [5] [M⁻¹ s⁻¹] | binding result [6] | binding result [7] | Median : PE-A [8] | Median : PE-A [9]
40H3 MMAE antibody drug conjugate (antibody, V domains shown) VH: QVQLKQSGPGLVQPSQSLSITCTVSGFSLTNYGIHWLRQSPGKGLEWLGMMWRGGGTDYNAAFISRLTITKDTSKSQVFFRMNNLQTNDTAIYYCARKGVGMGLGYWGQGTSVTVSS VL: DIQMTQSPASQSASLGESVTITCLASQTIGTWVAWYQQKPGRSPQLLIYGATNLADGVPSRFSGSGSGTKFSFKISSLQAEDFVSYYCQQLYSNPYTFGGGTKLEIK | 1.9 |  |  |  |  |  |  |  |  |  | 
40H3 DM1 antibody drug conjugate (antibody, V domains shown) VH: QVQLKQSGPGLVQPSQSLSITCTVSGFSLTNYGIHWLRQSPGKGLEWLGMMWRGGGTDYNAAFISRLTITKDTSKSQVFFRMNNLQTNDTAIYYCARKGVGMGLGYWGQGTSVTVSS VL: DIQMTQSPASQSASLGESVTITCLASQTIGTWVAWYQQKPGRSPQLLIYGATNLADGVPSRFSGSGSGTKFSFKISSLQAEDFVSYYCQQLYSNPYTFGGGTKLEIK | 0.56 |  |  |  |  |  |  |  |  |  | 
monoclonal antibody 40H3 (antibody, V domains shown, also called ma40H3 GS; 40H3 (full length antibody)) VH: QVQLKQSGPGLVQPSQSLSITCTVSGFSLTNYGIHWLRQSPGKGLEWLGMMWRGGGTDYNAAFISRLTITKDTSKSQVFFRMNNLQTNDTAIYYCARKGVGMGLGYWGQGTSVTVSS VL: DIQMTQSPASQSASLGESVTITCLASQTIGTWVAWYQQKPGRSPQLLIYGATNLADGVPSRFSGSGSGTKFSFKISSLQAEDFVSYYCQQLYSNPYTFGGGTKLEIK |  | 3160 | 2140 | 1120 | 0.27 | 4.51e-05 | 167000 |  |  |  | 
monoclonal antibody 3D10 (antibody, V domains shown) VH: QVQLKQSGPGLVQPSQSLSIICTVSGFSLTRNGVHWVRQSPGKGLEWVGVIWRSGRTDYDAAFMSRLSITKDNSKSQVFFKMNSLQADDTAIYYCVKNGDDGNYGTYWGQGTLVTVSA VL: DIVMSQSPSSLGVSVGEKVTMSCKSSQSLLDSRNQKNYLAWYQQKPGQSPKLLIYWASTRESGVPDRFTGSGSGTEFTLTISSVKAEDLAIYYCQQYYNYPYTFGGGTKLEIT |  | 196 | 205 | 1420 |  |  |  | no binding |  |  | 
monoclonal antibody 9G11 (antibody, V domains shown) VH: QVQLKQSGPGLVQPSQSLSITCTVSGFSLTRNGVHWVRQSPGKGLEWVGVIWRGGRTDYDAAFMSRLSITKDNSKSQVFFKMNSLQADDTAIYYCVKNGDDGNYGTYWGQGTLVTVSA VL: DIVMSQSPSSLGVSVGEKVTMSCKSSQSLLDSRNQKNYLAWYQQKPGQSPKLLIYWASTRESGVPDRFTGSGSGTEFTLTISSVKAEDLAIYYCQQYYNYPYTFGGGTKLEIT |  | 160 | 166 | 1010 |  |  |  |  | no binding (tested: 5 ng/ml) |  | 
monoclonal antibody 11E11 (antibody, V domains shown) VH: QVQLKQSGPSLVQPSQSLSITCTVSGFSLTNYGVHWIRQSPGKGLEWLGVKWRGGRTDYNAAFMSRLSITRDNSRSQVFFKMNSLQTDDTAIYYCAKNGPFGNFAGYWGQGTLVTVSA VL: DIVMSQSPSSLAVSVGEKVSLTCKSSQSLLDNQKHYLAWYQQKPGQSPKLLIYWASTRESGVPDRFTGSGSGTEFTLTISSVKAEDLAVYYCQQFYNYPYTFGGGTKLEIK |  | 274 | 216 | 1440 |  |  |  |  | no binding (tested: 5 ng/ml) |  | 
monoclonal antibody 1D9 (antibody, V domains shown) VH: QVQLKQSGRSLVQPSQSLSITCTVSGFSLTDYGVHWIRQSPGKGLEWLGVIWRSGRTDYNAVFMSRLSITKDNSKSQVFFKMNGLQTDDTAIYYCAKNGPFGNFAGYWGQGTPVAVSA VL: DIVMSQSPSSLAVSVGEKVTMRCRSSQSLLDSYHQKNYLAWYLQKPGQSPKLLIYWASTRESGVPDRFTGSGSGTDFTLTISSVKAEDLAVYYCQEYYRYPYTFGGGTKLEIK |  | 136 | 166 | 1230 |  |  |  | no binding |  | 41.4 | 45.5
monoclonal antibody 4A4 (antibody, V domains shown) VH: QVQLKQSGRSLVQPSQSLSITCTVSGFSLTDYGVHWIRQSPGKGLEWLGVIWRSGRTDYNAVFMSRLSITKDNSKSQVFFKMNGLLIEDTAIYYCAKNGPFGNFAGYWGQGTPVAVSA VL: DIVMSQSPSSLAVSVGEKVTMRCRSSQSLLDSYHQKNYLAWYLQKPGQSPKLLIYWASTRESGVPDRFTGSGSGTDFTLTISSVKAEDLAAYYCQEYYRYPYTFGGGTKLEIK |  | 83.3 | 130 | 1110 |  |  |  |  | no binding (tested: 5 ng/ml) | 48 | 41.7
monoclonal antibody 11G3 (antibody, V domains shown) VH: QVQLKQSGPSLVQPSQSLSITCTVSGFSLTNYGVHWVRQSPGKGLEWLGVMWRGGRTDYNAAFMSRLSITKDNSRSQVFFKMNSLQTDDAAIYYCAKNGPFGNFAGYWGQGTLVTVST VL: DIVMSQSPSSLPVSVGEKVSLTCKSSRSLLDNQKHYLAWYQQKPGQSPKLLIYWASTRESGVPDRFTGSGSGTEFTLTISSVKAEDLAVYYCQQFYNYPYTFGGGTKLEIK |  | 90.3 | 90.3 |  |  |  |  |  | no binding (tested: 5 ng/ml) | 39.6 | 37.9
